# Test results as given in the supplement of paper PMC9170038.
# Test system: K4 kissing-loop RNA reporter
# Assay: apparent KD of K4 kissing-loop reporter; higher = weaker reporter binding
# Settings: Eterna round: R107; input ligand: theophylline 20 uM
# Protocol: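 RNA-MaP round R107: designed RNA switches with theophylline, tryptophan, arginine or FMN aptamers are transcribed on-chip within common flanks. They are titrated with a labelled K4 kissing-loop RNA reporter in RNA-MaP buffer (100 mM Tris pH 7.5, 80 mM KCl, 4 mM MgCl2), without ligand or with the indicated ligand. Median apparent KD per design.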
# 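Further: bound reporter read as fluorescence of individual clusters on recovered sequencing chips by microscopy, with normalized cluster intensities fitted with a binding model.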
row,Sequence,apparent KD of K4 kissing-loop reporter [nM]
1,GUUACGCAUGGAAGGAGCGCAGGCUCAACAAAUAGCUCAGUGAUGUUGAGCAUAUUAAUUCUGCAGGUAGGUCGCCAUGUGUAAC [Ex Arginine B K4 25],536
2,UUUUUUUACUGAAGGAGCGGCAAUUGAUACGUAGAUAUAGUGAUGUUAUAUAAGAUAGAGAGCCAGGUAGGUCGCAGAUUUUUUU [ExArgB.W],167
3,GGGAGUAGUGCGGCCGCCACUGUGAAAGAAGAAGAAUAUAGUGAUGUUAUAUAGGAAAGGAAGAAUAGGACCGGGCAUUAGAUUU [SSTRyptB.K],235
4,AAUUUAGUGACGGCCGCCACUAGGGUGAUUUAUUUGUUUGAGUGAUGUUUUGAUGUUUGAUUUUGUAGGACCGGGUUAGGUGAUG [dddcmullin],326
5,GGCACUUUUGCUUGGAACCGUCAAGCUCGAUAGGAUAUGCCGAAAGGCAGAAGGAUUGACCUACAGAGUGAUGUUCUGCGUGCCU,288
6,AGUACAAUGGCGGCCGCCACUCAACGCAGAUCAAAGAUCUGCGAUCACUCAGUGAUGUUGAGUGAGAGGACCGGGCCUUUGUACA [Omei KL Tryp B SS B v6],311
7,GUUAAAUAAAUGGGCAUAGUGAUGUUGUGUCGAGGACCGGUACGGCCGCCACUCGAGCUAGCAUGCCGGUCAUUAUGGGUAGUUU [theeternabot_exclusion_KL_Trp_A_46],132
8,UUGAGCCUGACGGAAGUCAGGCUCUGCGAGCGAGGACCGGUACGGCCGCCACUCGGUGCAGUGAUGUUGCAUGGCCGCAAGGCCG [#2 Exclusion - Tryptophan A Attempt #16 (HarryS)],311
9,ACGUAGUUCUAGGAUACCAGCCAAGGUGCCAGGACAAAAGUCCUGGCAGCCAGUGAUGUUGGCCCUUGGCAGCCUAGAACUACGA [Omei KL Theo B Exc B v7],122
10,UAUAGAGUGACGGCCGCCACUAUUGUGAUUUAAUUGUUUGAGUGAUGUUUUGAUGUUUGAUUUUGUAGGACCGGGUUAUAUGUUA [zdzzmullin],793
11,CUCCGACUAUCGGCCGCCACUAUCGGAAAGUCCACGGACAUUCAAUGCAGUUAGUGAUGUUAACGUAGGACCGGGAUGAUUUGUA [theeternabot_sameState_KL_Trp_B_9],541

# Same assay, conditions: Eterna round: R107; input ligand: tryptophan 2.4 mM
row,Sequence,apparent KD of K4 kissing-loop reporter [nM]
1,UGAUACCAGACGGCCGCCACUACACCAGUCAAAGACUGGAUGUGAUGUCUGACCAGUGAUGUUGGUAGGACCGGGUCUGGUAUCU [TrypBX 6 #Palindromic #SwitchBubble #StaticStem],305
2,GGUAUCUAUACAGAUACCAGUCGUACGGCUGCAUUACAGGUUAGUGAUGUUAACCUGUACGACCCUUGGCAGCUGUAUAGUAGUA [#14 K4 Theophylline B Exclusion],104
3,CGUUUCUCUGUCGAUACCAGCUUCAGUUGGCGGCCAGUGAUGUUGGUAUCGCCGAUGCCAAGCCCUUGGCAGCGACAUGAGACCC [Gezausin],166
4,CUUGGAAGGACGGCCGCCACUGGGCAGUGAUGUUGCCCGAGUUGGUAACGCAGUGAUGUUGCGUCCAGGACCGGGUCCUAGGAAU [Exclusion Tryptophan B GF 25],139
5,UAGAUAAUGUAAGAUUAUGAUAAUUGGGAAGGAGCGCGGAAAUUCGCAGGUAGGUCGCCCUAUAAAGUAGUACGAGUGAUGUUCG [6.)],261
6,AAGUCUCGUUAAUUCGUGGUUUCGAUCGAUACCAGUAGCGAGAGGUACCCUUGGCAGCGAAAUGAGUGAUGUUCAUGAAAGAAGA [KL-XTheoA11],87.1
7,GUAGCACUUGACAGUGAUGUUGUCAAGGGCAAGGAUAUCACCUCAGUGAGAAGGUGUCCUUGAUAACUGCUACGGGAAUAUCCCA [Omei KL FMN A Exc D v7],168
8,UGACUGGACUGAAGGAGCGCUUAACUCCUAGUGAUGUUAGGAAAACGAGACAAAGUCUCGAAGCAGGUAGGUCGCAGUCUAGUCU,132
9,GCCAGUGAUGUUGGCAUUUCGAGCCAUGAAGGAGCGCACGGAAGUGCAGGUAGGUCGCAUGGUACUUAGGAUAUUACCCUAAGUA [Isterare],161
10,CAUACGCAUGGAGGAUAUGAGAUUUCUCAUAUUAUUUAAUAUUCUCAGUGAUGUUGAGAUAUAAACUCAGAAGGCCAUGUGUAUG [Ex FMN B 2],215
11,ACCACCUGUCUGGAUACCAGUCUUCGAGUGAUGUUGGAAGUUAGCCGGUUCUAUUACCUAGACCCUUGGCAGCCAGGAAUUAUAG [theeternabot_exclusion_KL_Theo_B_17],872
12,CGUGAAUGUCGUCAGUCAUCGGUCCAUGCACGAGGACCGGUACGGCCGCCACUCGAGCGUGGCAGUGAUGUUGCCAGCGCACUAA [KL-XTryp-A13],315
13,CCUGCAGCUGUUACCGAGGGAUGCUACGGACGAGGACCGGUACGGCCGCCACUCGCCAGUGAUGUUGGUGAGGGAGGACGUUCCU [Georte],148
14,UUAUCAUCAGCGGCCGCCACUGCAAAUUGGAGUGAUGUUCCAAGCGUGGAUAAUGAAAUCACUAGUAGGACCGGGUUGAUGAAUU [AK 1 Ex Trypt B],306
15,CGCAGUGAUGUUGCGAGUUUGAUCAGGGAAGGAGCGGCUCAGAAGCCAGGUAGGUCGCCCACGCAGUGAUGUUGUGUAUUCGGGU [Exclusion Arginine A GF 1],79.3
16,UGCCGCAAGGCGAGCGCUCCCACUCCGGAAGGAGCGCCCGGAAGGGCAGGUAGGUCGCCGGAGUGAUGUUCCGGUGGAGGGCUCG [#2 Exclusion - Arginine A Attempt #26 (Inspired by Omei)],297
17,CCUAUCUCAUACGAUACCAGUCAAUGAUCUUUGAUCAAUGCCAUCACCGAGUGAUGUUCGGACCCUUGGCAGCGUAUGAGAUAGG [whbob_Ex_Theo_B_sa103],247
18,AUUUAAUUAACUGAUACCAGACUUUUUGUUUUGAUAAUUACUAGUGAUGUUAGUGUUUCUGUCCCUUGGCAGCAGUAUCUACUUA [JR_ExcTheophyB_Sub017],106
19,UUGAGCCGGACUUAAGUCCGGCUCUGCGAGCGAGGACCGGUACGGCCGCCACUCGGUGCAGUGAUGUUGCAUGGCCGCAAGGCCG [#2 Exclusion - Tryptophan A Attempt #11 (HarryS)],296
20,GGAGGGAUCUCGGCCGCCACUCAUAAGAAAUGGGCCUCAGAAAUAUAGUGAUGUUAUGUAAAGAAGAGGACCGGGAGAAAGAAGG [ExTryptoB.Da],242
21,UGGAGUUGACGAAAAGUCAACUCCUGAGAAGGAGCGCACGAAAGUGCAGGUAGGUCGCUCUACCAGUGAUGUUGGUACUUAAUAA [#OpenEnded 6],84.5

row,Sequence,apparent KD of K4 kissing-loop reporter [nM]
1,ACGGUUUCCACGGCCGCCACUUGCGCAUUAGAUCUUACCCUAGGAGUGAUGUUCCAUACAAGUACAAGGACCGGGUGGGACAUAA [theeternabot_sameState_KL_Trp_B_28],239
2,CCGUGGAGUGAUGUUCCACGUUCUACGGAUACCAGUUGUGCCAGCGGCCCUUGGCAGCCGCACCUUGCAGUGAUGUUGUGAGGCU [Same State Theophylline A Gf 6],198
3,UGAUUUAACUGAAGGAGCGGCAAUUGAUAAGUAAAUAUAGUGAUGUUAUAUAAGAGAGAGAGCCAGGUAGGUCGCAGAGGGAGGA [ExArgB.I],140
4,AAUUCAGUGAUGUUGGAAGGCAGGCGGGAUACCAGCGGAGAAUAACGCCCUUGGCAGCCCAUAUAUCCCAAAUAGAUAAUAGUUC [Same State - Theophylline A (Freestyle 3)],376
5,GCAGUGAUGUUGCACGAGUAGGCUGGAGUACGAGGACCGGUACGGCCGCCACUCGUACGAUAGUCGCUAAUUUAUGGAAUGGUGA [#08 K4 Tryptophan A Same State],419
6,CUGCAACAUAACUUCUUCGUCCUAGAAGACUAGGAUAUCAGGAAACUGAGAAGGAGUCUCUGCAGUGAUGUUGCAGCUAGGACGA [[K]'-[F2]'-[F1]'-[F1]-[F2]-[K1]-[K2]-[F]''_Design3],173
7,UCAUGAAAGACGGCCGCCACUGAUGCUGGAGUGAUGUUUCGGACAUAGUAGAGUGAUGUUCUGCGCAGGACCGGGUCGUCAUGAA [KL-SSTryp-B10 #double Kiss],62
8,AGCAGUCACUCGAAAACCAUCGAAGAUGGACGAGGACCGGUACGGCCGCCACUCGGAGUGAUGUUCCGAAGACUGCAAAAUAAAA [#SwitchBubble 16],435
9,AUGGGUUGUUGAAGGAGCGCCGCCAGUGAUGUUGGGAGUUAGAUACCAGUGAUGUUGGGCCGGCAGGUAGGUCGCGGCGAUUUAU [Exclusion Arginine B GF 19],344
10,GGCUUGCUAGUGAUGUUAGCAUUUUCUGAAGGAGCGCGUGAAAACGCAGGUAGGUCGCAGAACCUUGCCAACUAUUUUAGUUGCC [Ex Arginine A K4 27],82.4
11,GUUACGCAUGGAAGGAGCGCAGGCUCAACAAAUAGCUCAGUGAUGUUGAGCAUAUUAAUUCUGCAGGUAGGUCGCCAUGUGUAAC [Ex Arginine B K4 25],508
12,UUUUUUUACUGAAGGAGCGGCAAUUGAUACGUAGAUAUAGUGAUGUUAUAUAAGAUAGAGAGCCAGGUAGGUCGCAGAUUUUUUU [ExArgB.W],147
13,GGGAGUAGUGCGGCCGCCACUGUGAAAGAAGAAGAAUAUAGUGAUGUUAUAUAGGAAAGGAAGAAUAGGACCGGGCAUUAGAUUU [SSTRyptB.K],183
14,AAUUUAGUGACGGCCGCCACUAGGGUGAUUUAUUUGUUUGAGUGAUGUUUUGAUGUUUGAUUUUGUAGGACCGGGUUAGGUGAUG [dddcmullin],271
15,GGCACUUUUGCUUGGAACCGUCAAGCUCGAUAGGAUAUGCCGAAAGGCAGAAGGAUUGACCUACAGAGUGAUGUUCUGCGUGCCU,408
16,AGUACAAUGGCGGCCGCCACUCAACGCAGAUCAAAGAUCUGCGAUCACUCAGUGAUGUUGAGUGAGAGGACCGGGCCUUUGUACA [Omei KL Tryp B SS B v6],135
17,GUUAAAUAAAUGGGCAUAGUGAUGUUGUGUCGAGGACCGGUACGGCCGCCACUCGAGCUAGCAUGCCGGUCAUUAUGGGUAGUUU [theeternabot_exclusion_KL_Trp_A_46],219
18,UUGAGCCUGACGGAAGUCAGGCUCUGCGAGCGAGGACCGGUACGGCCGCCACUCGGUGCAGUGAUGUUGCAUGGCCGCAAGGCCG [#2 Exclusion - Tryptophan A Attempt #16 (HarryS)],420
19,ACGUAGUUCUAGGAUACCAGCCAAGGUGCCAGGACAAAAGUCCUGGCAGCCAGUGAUGUUGGCCCUUGGCAGCCUAGAACUACGA [Omei KL Theo B Exc B v7],137
20,UAUAGAGUGACGGCCGCCACUAUUGUGAUUUAAUUGUUUGAGUGAUGUUUUGAUGUUUGAUUUUGUAGGACCGGGUUAUAUGUUA [zdzzmullin],788
21,CUCCGACUAUCGGCCGCCACUAUCGGAAAGUCCACGGACAUUCAAUGCAGUUAGUGAUGUUAACGUAGGACCGGGAUGAUUUGUA [theeternabot_sameState_KL_Trp_B_9],491
